In article PMC3206844 one finds stoichiometry N data, which are given here for one substance.

Assay [1] concerns the target Visinin-like Protein 1 (VILIP-1), unmyristoylated (human) (UniProt P62760). Put plainly: small-angle X-ray scattering (SAXS); 12 mg/mL (542 uM) VILIP-1, 100 mM NaCl, 5 mM CaCl2, 2.5 mM DTT, 20 mM HEPES pH 7.5, 20 °C; mass from forward scattering, ab initio shape.
Assay [2] has the same target. Nature of the assay: SEC; Sephadex 200 column, 100 mM NaCl, 20 mM HEPES pH 7.5, 0.5 mL/min; samples with 0.1 mM EDTA or 5 mM CaCl2, non-reduced or reduced with 2.5 mM DTT; monomer and dimer peaks.

A word on the stoichiometry N: it is a count of units in the complex or per binding partner. On to “Visinin-like Protein 1 (VILIP-1), unmyristoylated (from UniProt P62760 1-191) (natural protein)”, for which the stoichiometry N in assay [1] and in assay [2] was 2 throughout.
